This note sets out measurements from the DeepSol protein solubility set.

This data set is described as follows: soluble on expression in E. coli; label from the status in PepcDB or PDB records.
For the sequence “MSSRLDQLVNKYNKSCENVSFAEHMILKDKYESLVIEHESLIKTLELLEKTHGFTVEDLVTKQKEALEKKEVIEKWENKFGEMEKKLKTVERSIEYIMSVDVQTGVDSGSANRPNVKNSYQRGIF”, the “soluble on expression in E. coli” value is given as “not soluble”.

In the case of “MGSDKIHHHHHHMTFVKKALSPDEYGEVLFQHDWMRGEPSDVVCELLAKSERLFFRQDDVLFREGDKMQHCLLVETGKLQAFRHTYGGDEKIFGQFERGEFVAIAAVFMDHGRFPMNIRALSDGHTLMIPRQDIHQFCLQRPELALRLLNYLGKKLYSTINQIDWLTSSSAPQRLADYLLRQHHIQQTQHLTLPVSRGQLATSLGMRGETLSRLMSDWKRQGHITYRGHQVELCDLNYLKELAAEARRTF”, the “soluble on expression in E. coli” value is reported as “not soluble”.

Turning to “MNVCRLYGEELQKSQSNTFEDYFNRSEVTYRDGGEERTLSVLYLRHFEAALLDWLPYESDPLFTANGRDIHLRDIIALVCLWKNPAYRQRKRVYIHDEEELRRYFAEVDAKTLQALVSEWAETGECRLPERSA”, the “soluble on expression in E. coli” value was “not soluble”.

Regarding “MGSDKIHHHHHHMNEPHGERISVEIPGLERILRGGFLPGRSYLVSGGPGTGKTTLGLQYLASSADGNGLLISLGESERNLRADALRIGLSLDGTSVIDLSPGADAEPEAAYTLLEPWEAEGVDIRSRIGALLPDGPPERVFIDALSQLRQLMPDAYQFRKQVMGLLEYLNSAGTTVLYTAEQGSSADTDLRYLGDGILELEHRENRRILRVLKFRGSGFSEGEHTLRLGDHGMQVFERLMPGEHRRTYVAEELPCGIGELDRLSGGGITRGTVTIISGPTGVGKTSLGLQYMHEAARRGERSVVYTFEESIGTLRTRCEAIGIPVSDMMAKGSLSIDEVEPLHYSPDEFAWRVRTEVEQQGARMVMLDSLAGFRQSVRGDDITAHAHALCHYLSNMGVTVLLVNEQSAIAGEELRPSEDDINYLADTIVLLRYMELDGGLRKAIGILKKRTGDFEKTLREFQITREGLRVGAPLYGLQGILQGIPSKIATLDATE”, the “soluble on expression in E. coli” value is on record as “not soluble”.

As to “MGSDKIHHHHHHMTTSITIGNFKGGVGKTTTCVTFSYLLNKAHRKTLLIDFDPQGNASEIIEKTFPVFKQKNSKSLTDGIKNLDLSESIAHVTDYLDLMPSDWSLSLLPDMLEDYKKSDRPLFLKTLLTKIRNDYDYILIDVPPTLSAYTNNAVLASDYVIMVMQTQEQSYSSSLKFVSYLQGLRKDYDKSFDLLGIIAYLVKKDGPVDHEVLKAANQAFGKALFHGNVFQRERVKRFGKSGIKDEDMWDKRALYMYQVVLDEALSRINLLEE”, the “soluble on expression in E. coli” value is “not soluble”.

Turning to “MSLDIHCHILPEIDDGPSSLEESLVMAREAVKEGITKIIATPHHLHPSYNNKAAVVKEKVRKLNEAIQKENIPLEILPGQEVRISGDVMDGLVSGDILTLADQGKYLFVEFSSNHVSRYADKLFFQLLSQDIIPIIVHPERNHEFLKNPGLLYDLVNGGALTQITTSSLTGHLGKKIKKFTEQIIEADLTHFLASDAHNVTERTFRIREAFALVEKNYGSSKAYEFQENAELLVENQHVMGPPPQPIVKKKLLGIFEGHHHHHH”, the “soluble on expression in E. coli” value is reported as “soluble”.

In the case of “AAKGNMQCNIFVPAGTSKGKTTQTRLYGANCIEVEGTREDVALAAIESSVTHGSHYVGHNWHPLFIEGVKSIAYEIWEQCGYKAPDNFVVPAGNGSLLAGAYIGFSELLKGGEISKLPRLFGIQSESIQPFVQTFNNKEINITSEDTIAEGIKIKRSSRMNEIVQFVKETNGNFISVNEQQIQSALKEMGAQGYFIEPTSATAFAGIAQLIKTQEIKPDELTVGVVTGNGLKATNSIEHLINDMRG”, the “soluble on expression in E. coli” value is on record as “not soluble”.

On to “MAHHHHHHMLLKALKASFEANKRVYESVLLTFKGVDGYDVYNCSVPFSYKGKTHIYGRVEKRDIWAASHVRLFEETGKDEFTAVPELSWELEDPYIAKINNEMIFGGTRVRKNGNAILSYYGYFYRGTPVELNYFTTGPDYMKDIRVVPLQDGRLGVFSRVRTRAEVYVGFSTVDTIDHLTTEVIATAKAIDFIRPGTWGGVNQAYLLSSGKIGCIGHFAYNDTKPSGEPLMVYINISFVFDAETRQLDTEHVIGTKSCYPACPAKLPVLEDCVFASGIVMRSDGKCDLYSGLGDTHEGRITIDYPFHGYGNIVGQMIF”, for which the “soluble on expression in E. coli” value is “not soluble”.

With “MLYNKSSFCLWKETIVPIILDSDVLEVAEYVYKTRLSQPYTEVGSEWEYNYKNPTATFAKGDGHNLQRYITIDGKQLHRPIHGLAHTMRTLMYSQLMYCSSKKQPSPHVCQDGRTIADLSELDLKKINIAQLFFVAGRESEASYGDAYHRYHLYGAKQFEEYARKHLTHLFSEEEIRLYSRCIEDRVGDSFDGTPEGYIIHLSHMIDLMRCKSPVEVFLGHSKGVSGIVPTLIHLFGKQDGLDIMHYARGLFAATGEAVPYIDSSEWPHLGVDLSRVQRALSIVGDINVPGQEADSKKTAQAGFSVDGCYSALTSVPTPSWYEKELKEIDDEKIDVKEVDDREIEKEHEIVVPSQATTPLSTVKTDSFVEKLLKPFMIWKKPEVQTTQPTTEKTNKP”, the “soluble on expression in E. coli” value is “not soluble”.

“MGSDKIHHHHHHMYLITSAAMVASELQSEFGPLPPCFLPVGNKRLFHHQLALIPAGERTIITLPEGFTPGPYDSQSLKDYGVELLYLPPTLSLGESIVYALIQLEFADDEPLYILHGDTLFDSLPRQTDCLGLSQVEDNYNWAEFDAQSGTLRPYHAELRPSSELISNGFFSFSAPRTLIRYITQAKGDFIAGLNGYIDDKGLTPITLPHWYDFGHSHTYYQSKSRMTTQRAFNGMAIQGQVVKKFSRNKHKLAAEANWYQSLPGPMRGYIPQLLGCDESPELFGYSIEYLHLTALNELYVFSQLPAFAWRKVLKACCQFLKDASSYSVADAQTLSGLFMDKTLSRLEDFASQSGISVAQENRINGALRPSLLELARISREYLPKDNGRQHLLHGDFCFSNILYDFRTCNIKVIDPRGLDGNDKQTIHGNGLYDIAKLAHSVLGLYDAIIAGYFKAERLGQNLDFSIAITPRREQIMADFVRLMASEFAVSEAELYAMQIQLFLSMLPLHSDRPDRQLGFIGNAYRLYDRLLACTGNPS”: the “soluble on expression in E. coli” value was “not soluble”.

As to “MKIALINENSQASKNHIIYDSLKEATDKKGYQLFNYGMRGEEGESQLTYVQNGLMAAILLNTKAVDFVVTGCGTGVGAMLALNSFPGVVCGLAVDPTDAYLYSQINGGNALSIPYAKGFGWGAELTLKLMFERLFAEEMGGGYPRERVIPEQRNARILNEVKQITHNDLMTILKIIDQDFLKDTISGKYFQEYFFENCQDDEVAAYLKEVLAK”, the “soluble on expression in E. coli” value was “soluble”.

With “MTMSTILFDDIRPYCDQEAPAVIERLLSSAEYRYVFGKMMPDVKPQEFEQMMLRCKSTGEFKHIFGYTAVKAVSEKTTFSLSLSGRSRIPDNGAYIFISNHRDIVLDSAFLNLLLAEIDYNMPQIAIGDNLLVKPWIEDFVRLNGSFIVRRGINMRELIAQSQRLSAYIRHTITQTKDSIWIAQREGRAKDADDRTQSSVLKMLAMSGEDGGIKSLLNLNIVPLSLSYEYDPCDYLKAREMLSKQRDPLYKKPVGEDLLNMQTGIFGYKGRVHFAIGTPLRELAESIPADAPHARQFTEAGKLIDAEIHRRYRLYPGNYVAWDLLDGCDHAGSHYSKEEKETFVNYLSAQIAKVEMQDKDEEELKRLILIMYANPARAYYAAQDPTNV”, the “soluble on expression in E. coli” value is reported as “not soluble”.

Turning to “MGVATMVTDKYQKCIDACNRCSQACYECFKACLNEPDVNARRTCISILFECAQMCQMSSALMSMDAQFAIDHCKLCSVICDKCAQECSMFQDPHCQKCANECRTCSNECRMMSGMLEHHHHHH”, the “soluble on expression in E. coli” value is listed as “soluble”.

Regarding “MSLPDEQGRRTVTLETAEEALLKRAVVYDHDGDEHYHVASALIKSIRGSDPDAALYWLARMLYAGEDPRFIARRLVISAAEDIGLADPQALVIAQAAADAVSFIGMPEGRIPLAEAVVYLACAPKSNSAYLAIDRALAVVEREKTPPVPNHLKDTGYGSDQRLGYGKGYQYPHDFPGAWVEQRYLPEGVDGPFWEPKGYGREAELARLLRERRGREGHHHHHH”, the “soluble on expression in E. coli” value is given as “soluble”.

As to “MHHHHHHSSGVDLGTENLYFQSMVEDHYEMGEELGSGQFAIVRKCRQKGTGKEYAAKFIKKRRLSSSRRGVSREEIEREVNILREIRHPNIITLHDIFENKTDVVLILELVSGGELFDFLAEKESLTEDEATQFLKQILDGVHYLHSKRIAHFDLKPENIMLLDKNVPNPRIKLIDFGIAHKIEAGNEFKNIFGTPEFVAPEIVNYEPLGLEADMWSIGVITYILLSGASPFLGETKQETLTNISAVNYDFDEEYFSNTSELAKDFIRRLLVKDPKRRMTIAQSLEHSWIKAIRRRNVRGEDSG”, the “soluble on expression in E. coli” value is “soluble”.
